In paper PMC4894655, “Three proliferating cell nuclear antigen homologues from Metallosphaera sedula form a head-to-tail heterotrimer” (Scientific Reports, 2016) one finds Kd, koff and kon data, which are given here for four molecules.

Like-named read-outs stand apart in the source and are kept apart here.

Test [1] deals with T1, SsoPCNA1:MsePCNA2 complex (Sulfolobus solfataricus | …, UniProt P57766 1-249; A4YHP5 1-244).
T1 construct: SsoPCNA1, PCNA subunit 1 of Sulfolobus solfataricus; as m4; MsePCNA2 (Msed_1792), PCNA homologue of Metallosphaera sedula; as m2; Formed on the SPR chip: MsePCNA2 immobilised on CM5, then 1 μM SsoPCNA1 applied; also called immobilised MsePCNA2 that tethered SsoPCNA1
T1 sequence (looked up) 1: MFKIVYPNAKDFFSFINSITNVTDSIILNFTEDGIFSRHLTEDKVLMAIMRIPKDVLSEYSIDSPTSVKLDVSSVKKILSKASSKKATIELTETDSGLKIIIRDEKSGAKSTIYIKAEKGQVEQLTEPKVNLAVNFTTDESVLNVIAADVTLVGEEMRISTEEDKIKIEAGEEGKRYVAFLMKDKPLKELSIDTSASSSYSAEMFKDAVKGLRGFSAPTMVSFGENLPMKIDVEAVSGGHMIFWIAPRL
T1 sequence (looked up) 2: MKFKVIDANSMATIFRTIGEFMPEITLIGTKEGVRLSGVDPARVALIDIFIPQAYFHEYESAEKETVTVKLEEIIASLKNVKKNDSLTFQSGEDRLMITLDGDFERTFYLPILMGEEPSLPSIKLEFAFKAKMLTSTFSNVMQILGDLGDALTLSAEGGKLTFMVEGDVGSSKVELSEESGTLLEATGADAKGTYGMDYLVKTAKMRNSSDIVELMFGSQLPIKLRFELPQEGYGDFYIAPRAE
As to the kind of experiment: SPR; Biacore; MsePCNA2 or SsoPCNA2 immobilised on CM5, 1 μM MsePCNA1 or SsoPCNA1 applied, then MsePCNA3 or SsoPCNA3 injected at various concentrations; plateau signal fitted to a Langmuir isotherm; 10 mM HEPES-HCl pH 7.4, 150 mM NaCl.

The target in test [2] is T2, MsePCNA1:MsePCNA2 heterodimer (Metallosphaera sedula, UniProt A4YCS6 1-247; A4YHP5 1-244).
T2 construct: MsePCNA1 (Msed_0051), PCNA homologue of Metallosphaera sedula; as m1; MsePCNA2 (Msed_1792), PCNA homologue of Metallosphaera sedula; as m2; In SPR formed on the chip: MsePCNA2 immobilised on CM5, then 1 μM MsePCNA1 applied; In the pull-down and SEC formed in the mixture; Tag removal is said for the pull-down only; also called immobilised MsePCNA2 with MsePCNA1; MsePCNA1 and MsePCNA2 together; …
T2 sequence (looked up) 1: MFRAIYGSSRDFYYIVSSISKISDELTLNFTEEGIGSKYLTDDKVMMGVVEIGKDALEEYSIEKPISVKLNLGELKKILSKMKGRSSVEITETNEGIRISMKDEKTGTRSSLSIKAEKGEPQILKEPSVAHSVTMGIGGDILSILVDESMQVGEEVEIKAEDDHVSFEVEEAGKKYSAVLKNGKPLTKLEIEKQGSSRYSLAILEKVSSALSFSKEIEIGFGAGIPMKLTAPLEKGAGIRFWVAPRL
T2 sequence (looked up) 2: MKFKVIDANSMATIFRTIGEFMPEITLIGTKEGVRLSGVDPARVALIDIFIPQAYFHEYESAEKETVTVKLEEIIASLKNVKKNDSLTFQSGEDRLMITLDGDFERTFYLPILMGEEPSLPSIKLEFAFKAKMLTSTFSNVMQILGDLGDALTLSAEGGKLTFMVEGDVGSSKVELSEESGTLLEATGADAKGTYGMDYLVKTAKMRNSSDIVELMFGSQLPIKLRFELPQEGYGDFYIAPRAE
The description is as above.

The target of test [3] is SsoPCNA1:SsoPCNA2 heterodimer (Sulfolobus solfataricus) (UniProt P57766). The description is as above.
Another test addresses T3, SsoPCNA1 (Sulfolobus solfataricus, UniProt P57766 1-249).
T3 construct: SsoPCNA1, PCNA subunit 1 of Sulfolobus solfataricus; also called S. solfataricus PCNA1
T3 sequence (looked up): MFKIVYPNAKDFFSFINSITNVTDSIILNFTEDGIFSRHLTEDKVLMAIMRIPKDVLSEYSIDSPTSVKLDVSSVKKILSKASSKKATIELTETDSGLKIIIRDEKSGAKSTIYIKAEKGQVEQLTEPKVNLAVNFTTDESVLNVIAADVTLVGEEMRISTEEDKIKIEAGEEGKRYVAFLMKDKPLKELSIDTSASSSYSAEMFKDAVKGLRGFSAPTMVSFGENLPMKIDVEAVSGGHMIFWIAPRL
As to the kind of experiment: SPR; Biacore; about 350 RU of MsePCNA2 or SsoPCNA2 immobilised on Sensor Chip CM5; MsePCNA1 or SsoPCNA1 injected (2.5, 5, 10, 20, 40 nM), kinetic fit; 10 mM HEPES-HCl pH 7.4, 150 mM NaCl. As to conditions: both partners purified.

In a further test the target is T4, MsePCNA1 (Metallosphaera sedula, UniProt A4YCS6 1-247).
T4 construct: MsePCNA1 (Msed_0051), PCNA homologue of Metallosphaera sedula; 'His6-tag-removed' is said for the pull-down only; also called Msed_0051; M. sedula PCNA homologue 1
T4 sequence (looked up): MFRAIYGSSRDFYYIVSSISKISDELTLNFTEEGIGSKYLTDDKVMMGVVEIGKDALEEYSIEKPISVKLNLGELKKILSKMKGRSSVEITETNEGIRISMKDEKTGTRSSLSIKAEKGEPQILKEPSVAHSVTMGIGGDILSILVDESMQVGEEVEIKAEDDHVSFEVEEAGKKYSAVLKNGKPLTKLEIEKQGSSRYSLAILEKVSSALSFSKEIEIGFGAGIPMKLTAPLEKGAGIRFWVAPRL
Described as above. The note with it: both partners purified.

Test [4] has as its target T5, SsoPCNA2 (Sulfolobus solfataricus).
T5 chain: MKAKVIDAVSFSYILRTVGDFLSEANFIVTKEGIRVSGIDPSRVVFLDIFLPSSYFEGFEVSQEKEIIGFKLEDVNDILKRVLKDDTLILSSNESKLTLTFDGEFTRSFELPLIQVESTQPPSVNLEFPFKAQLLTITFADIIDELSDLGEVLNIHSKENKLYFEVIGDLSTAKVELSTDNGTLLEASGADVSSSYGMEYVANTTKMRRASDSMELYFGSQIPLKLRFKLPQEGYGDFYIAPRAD
As to the kind of experiment: SPR; 50 nM MsePCNA1. (SPR reads the build-up and loss of mass on a sensor chip optically.)

For test [5], the target named is T5, SsoPCNA2. Nature of the test: SPR; 2.5 nM MsePCNA1.
Test [6] has as its target T6, MsePCNA2 (Metallosphaera sedula, UniProt A4YHP5 1-244).
T6 chain: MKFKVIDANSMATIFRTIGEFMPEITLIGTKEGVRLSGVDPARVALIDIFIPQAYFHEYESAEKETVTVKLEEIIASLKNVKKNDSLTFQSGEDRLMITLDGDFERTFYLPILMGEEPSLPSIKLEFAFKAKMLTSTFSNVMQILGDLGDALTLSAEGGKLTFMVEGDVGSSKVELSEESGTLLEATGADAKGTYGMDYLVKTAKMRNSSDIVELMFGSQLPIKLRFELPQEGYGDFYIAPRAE
Nature of the test: SPR; 2.5 nM MsePCNA1.

The target of test [7] is T5, SsoPCNA2. As to the kind of experiment: SPR; 5 nM MsePCNA1.
The target of test [8] is T6, MsePCNA2. As to the kind of experiment: SPR; 5 nM MsePCNA1.
For test [9], the target named is T6, MsePCNA2. Nature of the test: SPR; 10 nM MsePCNA1.
The target of test [10] is T5, SsoPCNA2. As to the kind of experiment: SPR; 20 nM MsePCNA1.
Test [11] deals with T6, MsePCNA2. As to the kind of experiment: SPR; 20 nM MsePCNA1.
For test [12], the target named is T6, MsePCNA2. As to the kind of experiment: SPR; 1.25 nM MsePCNA1.
The target of test [13] is T6, MsePCNA2. As to the kind of experiment: SPR; 20 nM MsePCNA1.
The target in test [14] is T5, SsoPCNA2. As to the kind of experiment: SPR; 5 nM MsePCNA1.
The target in test [15] is T6, MsePCNA2. Nature of the test: SPR; 1.25 nM MsePCNA1.
In test [16] the target is T5, SsoPCNA2. Nature of the test: SPR; Biacore; about 350 RU of MsePCNA2 or SsoPCNA2 immobilised on Sensor Chip CM5; MsePCNA1 or SsoPCNA1 injected (2.5, 5, 10, 20, 40 nM), kinetic fit; 10 mM HEPES-HCl pH 7.4, 150 mM NaCl.
Test [17] has as its target T5, SsoPCNA2. As to the kind of experiment: SPR; 2.5 nM MsePCNA1.
Test [18] deals with T6, MsePCNA2. As to the kind of experiment: SPR; 2.5 nM MsePCNA1.
In test [19] the target is T5, SsoPCNA2. As to the kind of experiment: SPR; 10 nM MsePCNA1.
Test [20] concerns the target T6, MsePCNA2. As to the kind of experiment: SPR; 10 nM MsePCNA1.
For test [21], the target named is T5, SsoPCNA2. As to the kind of experiment: SPR; 40 nM MsePCNA1.
Test [22] concerns the target T6, MsePCNA2. As to the kind of experiment: SPR; 40 nM MsePCNA1.
Test [23] has as its target T6, MsePCNA2. As to the kind of experiment: SPR; 40 nM MsePCNA1.

As for SsoPCNA3 (natural protein), the equilibrium dissociation constant (Kd) (usually a measure of binding affinity in units of concentration) in [1] worked out at 170 nM; in [2] it was 190 nM; in test [3] it was 200 nM.

B1: MsePCNA3 (natural protein, Metallosphaera sedula, UniProt A4YIY6 1-245, looked up)
chain: MRIAYANAMDFKTVIEALSKLIDEVTFTFTSSGLDVVAVDRAHISLIKLHFPKEAFEEFDVEDQFRFGFNTQYMLKVMASAKRKEKIEMESREESEIVIRMLGEPPREFTIRNIEVPIQELPELKLDFDVKAKITSGGFKKAVSEIATVSDSVEIDATEMEIKLRSKESTEIEVEFSKEMGGLQEIEVKKPSVSSYPSDYLEDVLVLTRLSGFLNLLFSEQKPLQLEFNMDNGGSVVYLLAPNVG
notes: MsePCNA3 (Msed_2250), PCNA homologue of Metallosphaera sedula; 'His6-tag-removed' is said for the pull-down only; also called Msed_2250; M. sedula PCNA homologue 3
Regarding B1, the figures for the dissociation constant (Kd) in test [1] (both partners purified) and in test [2] (both partners purified) were 380 nM and 43 nM, respectively.

B2: MsePCNA2 (natural protein, Metallosphaera sedula, UniProt A4YHP5 1-244, looked up)
chain: MKFKVIDANSMATIFRTIGEFMPEITLIGTKEGVRLSGVDPARVALIDIFIPQAYFHEYESAEKETVTVKLEEIIASLKNVKKNDSLTFQSGEDRLMITLDGDFERTFYLPILMGEEPSLPSIKLEFAFKAKMLTSTFSNVMQILGDLGDALTLSAEGGKLTFMVEGDVGSSKVELSEESGTLLEATGADAKGTYGMDYLVKTAKMRNSSDIVELMFGSQLPIKLRFELPQEGYGDFYIAPRAE
notes: MsePCNA2 (Msed_1792), PCNA homologue of Metallosphaera sedula; 'His6-tag-removed' is said for the pull-down only; also called Msed_1792; M. sedula PCNA homologue 2
B2: in the test with SsoPCNA1, the Kd is 1.8 nM; the off-rate (koff) (as a rule, the rate constant with which the complex falls apart) worked out at 0.00044 s⁻¹; the on-rate constant (kon) (commonly the rate constant with which the complex forms) worked out at 270000 M⁻¹ s⁻¹. In the test with MsePCNA1, this molecule showed a Kd of 0.33 nM, an off-rate constant (koff) of 8.9e-05 s⁻¹ and a kon of 280000 M⁻¹ s⁻¹.

B3: MsePCNA1 (natural protein)
chain: MFRAIYGSSRDFYYIVSSISKISDELTLNFTEEGIGSKYLTDDKVMMGVVEIGKDALEEYSIEKPISVKLNLGELKKILSKMKGRSSVEITETNEGIRISMKDEKTGTRSSLSIKAEKGEPQILKEPSVAHSVTMGIGGDILSILVDESMQVGEEVEIKAEDDHVSFEVEEAGKKYSAVLKNGKPLTKLEIEKQGSSRYSLAILEKVSSALSFSKEIEIGFGAGIPMKLTAPLEKGAGIRFWVAPRL
On to B3, for which the Kd with SsoPCNA2 [4] was 27.5 nM; in the test with SsoPCNA2 [10], 12.9 nM; with MsePCNA2 [11] it was 0.215 nM; in the test with MsePCNA2 [12], 0.531 nM; with SsoPCNA2 [14], 6.37 nM; with SsoPCNA2 [16], 1.6 nM. The Kd turned out to be 6.81 nM with SsoPCNA2 [17]; 0.396 nM with MsePCNA2 [18]; 7.02 nM with SsoPCNA2 [19]; 0.249 nM with MsePCNA2 [20]; 36 nM with SsoPCNA2 [21]; 0.253 nM in the test with MsePCNA2 [22]. In addition, the off-rate (koff) in the test with SsoPCNA2 [5] worked out at 0.00134 s⁻¹; in the test with MsePCNA2 [6], 0.000121 s⁻¹; with SsoPCNA2 [7] it was 0.00132 s⁻¹; with MsePCNA2 [8] it was 0.00011 s⁻¹; with MsePCNA2 [9] it was 7.99e-05 s⁻¹; with MsePCNA2 [13] it was 5.79e-05 s⁻¹. The koff was found to be 0.000128 s⁻¹ in the test with MsePCNA2 [15], 0.0012 s⁻¹ with SsoPCNA2 [16] and 4.29e-05 s⁻¹ with MsePCNA2 [23]. This molecule also had a kon with SsoPCNA2 [16] of 130000 M⁻¹ s⁻¹.
